Source: publication PMC5874296, “A CTP Synthase Undergoing Stage-Specific Spatial Expression Is Essential for the Survival of the Intracellular Parasite Toxoplasma gondii” (Frontiers in Cellular and Infection Microbiology, 2018)

Key:
TgCTPS (CTP synthase) = target: T1, TgCTPS (CTP synthase) (Toxoplasma gondii, UniProt B9Q379); experiment: pyruvate kinase/lactate dehydrogenase-coupled assay with recombinant enzyme; format: biochemical
T1 sequence (B9Q379 1-652): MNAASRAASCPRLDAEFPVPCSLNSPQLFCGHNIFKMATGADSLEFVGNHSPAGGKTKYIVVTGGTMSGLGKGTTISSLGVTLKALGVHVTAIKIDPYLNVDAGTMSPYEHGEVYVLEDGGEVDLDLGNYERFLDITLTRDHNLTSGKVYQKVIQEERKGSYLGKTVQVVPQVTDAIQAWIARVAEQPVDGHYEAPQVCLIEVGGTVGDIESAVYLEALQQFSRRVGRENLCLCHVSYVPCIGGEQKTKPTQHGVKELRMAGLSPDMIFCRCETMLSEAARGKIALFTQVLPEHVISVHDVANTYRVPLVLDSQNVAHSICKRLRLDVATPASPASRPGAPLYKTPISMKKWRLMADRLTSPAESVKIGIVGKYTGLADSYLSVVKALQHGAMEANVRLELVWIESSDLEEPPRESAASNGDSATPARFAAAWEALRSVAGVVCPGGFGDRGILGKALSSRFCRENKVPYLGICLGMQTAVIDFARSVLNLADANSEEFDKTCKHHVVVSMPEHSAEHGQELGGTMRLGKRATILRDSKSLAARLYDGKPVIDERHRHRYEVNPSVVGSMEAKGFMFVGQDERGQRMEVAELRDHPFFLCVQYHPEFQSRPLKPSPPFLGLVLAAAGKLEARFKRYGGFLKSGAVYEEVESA

purified protein = substrate: O=c1ccn([C@@H]2O[C@H](COP(=O)(O)OP(=O)(O)OP(=O)(O)O)[C@@H](O)[C@H]2O)c(=O)[nH]1; experiment: purified protein; format: biochemical, Toxoplasma gondii; conditions: Mg2+
[1] = substrate: Nc1ncnc2c1ncn2[C@@H]1O[C@H](COP(=O)(O)OP(=O)(O)OP(=O)(O)O)[C@@H](O)[C@H]1O; experiment: steady-state kinetics, coupled enzyme assay (Km); format: biochemical, Toxoplasma gondii; conditions: Mg2+; 37.0 °C
[2] = substrate: NC(=O)CC[C@H](N)C(=O)O; experiment: steady-state kinetics, coupled enzyme assay (Km); format: biochemical, Toxoplasma gondii; conditions: Mg2+ negative cooperativity in the binding of L-glutamine to the active site; 37.0 °C

Molecule `[N-]=[N+]=CC(=O)CC[C@H](N)C(=O)O` [DON, 6-diazo-5-oxo-L-norleucine] has an IC50 (TgCTPS (CTP synthase)) of ~40 nM.

B1: TgCTPS (CTP synthase) (Toxoplasma gondii) (protein)
chain: MNAASRAASCPRLDAEFPVPCSLNSPQLFCGHNIFKMATGADSLEFVGNHSPAGGKTKYIVVTGGTMSGLGKGTTISSLGVTLKALGVHVTAIKIDPYLNVDAGTMSPYEHGEVYVLEDGGEVDLDLGNYERFLDITLTRDHNLTSGKVYQKVIQEERKGSYLGKTVQVVPQVTDAIQAWIARVAEQPVDGHYEAPQVCLIEVGGTVGDIESAVYLEALQQFSRRVGRENLCLCHVSYVPCIGGEQKTKPTQHGVKELRMAGLSPDMIFCRCETMLSEAARGKIALFTQVLPEHVISVHDVANTYRVPLVLDSQNVAHSICKRLRLDVATPASPASRPGAPLYKTPISMKKWRLMADRLTSPAESVKIGIVGKYTGLADSYLSVVKALQHGAMEANVRLELVWIESSDLEEPPRESAASNGDSATPARFAAAWEALRSVAGVVCPGGFGDRGILGKALSSRFCRENKVPYLGICLGMQTAVIDFARSVLNLADANSEEFDKTCKHHVVVSMPEHSAEHGQELGGTMRLGKRATILRDSKSLAARLYDGKPVIDERHRHRYEVNPSVVGSMEAKGFMFVGQDERGQRMEVAELRDHPFFLCVQYHPEFQSRPLKPSPPFLGLVLAAAGKLEARFKRYGGFLKSGAVYEEVESA
With B1 the K0.5 (purified protein) was 0.47 ± 0.03 mM, the Km [1] was 540 ± 50 µM and the kcat [1] was 36 s⁻¹. The kcat/Km [1] was 66700 M⁻¹ s⁻¹, the Km [2] was 260 ± 40 µM and the kcat [2] was 29.6 s⁻¹. For the same molecule, the kcat/Km [2] was 114000 M⁻¹ s⁻¹.
